{"source": "paper PMC6086657", "about": "“Structure of the human volume regulated anion channel” (eLife, 2018)", "proteins": {"B1": {"name": "human SWELL1 (LRRC8A) with a C-terminal FLAG-tag (SWELL1-GGG-FLAG) (natural protein, UniProt Q8IWT6 1-810, looked up)", "chain": "MIPVTELRYFADTQPAYRILKPWWDVFTDYISIVMLMIAVFGGTLQVTQDKMICLPCKWVTKDSCNDSFRGWAAPGPEPTYPNSTILPTPDTGPTGIKYDLDRHQYNYVDAVCYENRLHWFAKYFPYLVLLHTLIFLACSNFWFKFPRTSSKLEHFVSILLKCFDSPWTTRALSETVVEESDPKPAFSKMNGSMDKKSSTVSEDVEATVPMLQRTKSRIEQGIVDRSETGVLDKKEGEQAKALFEKVKKFRTHVEEGDIVYRLYMRQTIIKVIKFILIICYTVYYVHNIKFDVDCTVDIESLTGYRTYRCAHPLATLFKILASFYISLVIFYGLICMYTLWWMLRRSLKKYSFESIREESSYSDIPDVKNDFAFMLHLIDQYDPLYSKRFAVFLSEVSENKLRQLNLNNEWTLDKLRQRLTKNAQDKLELHLFMLSGIPDTVFDLVELEVLKLELIPDVTIPPSIAQLTGLKELWLYHTAAKIEAPALAFLRENLRALHIKFTDIKEIPLWIYSLKTLEELHLTGNLSAENNRYIVIDGLRELKRLKVLRLKSNLSKLPQVVTDVGVHLQKLSINNEGTKLIVLNSLKKMANLTELELIRCDLERIPHSIFSLHNLQEIDLKDNNLKTIEEIISFQHLHRLTCLKLWYNHIAYIPIQIGNLTNLERLYLNRNKIEKIPTQLFYCRKLRYLDLSHNNLTFLPADIGLLQNLQNLAITANRIETLPPELFQCRKLRALHLGNNVLQSLPSRVGELTNLTQIELRGNRLECLPVELGECPLLKRSGLVVEEDLFNTLPPEVKERLWRADKEQA", "notes": "SWELL1 (LRRC8A), human, UniProt Q8IWT6, cDNA Origene #RC208632; the abstract calls it full-length; the model holds residues 15-68, 94-174, 232-802 (inner subunit) and 15-68, 94-175, 214-802 (outer subunit); Homohexamer (trimer of dimers); The solubilization buffer held 2 mg/mL iodoacetamide; One endogenous SWELL1 allele remained intact in the expression cell line; also called SWELL1-FLAG; …"}}, "biological_target": "the molecule itself", "test": "cryo-EM structure; SWELL1-FLAG homomer in 20 mM Tris pH 8, 150 mM NaCl, 0.05% digitonin, ~8 mg/mL on UltrAuFoil grids; C3 symmetry imposed; ~4 Å map"}
{"protein": "B1", "values": [{"measurement": "stoichiometry N", "value": 6}]}
